The data set relates to GsuI restriction endonuclease. As to conditions: methylation of top strand; bottom strand 664; B+ buffer, 30 uM AdoMet, 37 C 3 h.

Regarding “AGTTCTGGAGCATCGTTCACCGGTTACAAC / TGGTTGTAACCGGTAACGGATGCTCCAGAACTTCTC [duplex #1 GsuI site]”, the activity (3H radioactivity (units not stated)) came to 13200.
